Experiments:
Test in all cases: holdup assay
Set-up in all cases: key: below the threshold = too weak to quantify, mostly under pKd 3.1 to 4
[1] = biological target: ARHGEF12, Q9NZN5-2
[2] = biological target: T1, APBA1_1, Q02410
T1 sequence (Q02410 651-752, limits assumed, looked up): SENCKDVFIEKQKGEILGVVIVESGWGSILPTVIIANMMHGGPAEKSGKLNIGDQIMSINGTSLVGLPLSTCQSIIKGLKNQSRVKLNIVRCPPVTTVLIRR

[3] = biological target: DLG2_3, Q15700
[4] = biological target: T2, RHPN1, Q8TCX5
T2 sequence (Q8TCX5 508-602, limits assumed, looked up): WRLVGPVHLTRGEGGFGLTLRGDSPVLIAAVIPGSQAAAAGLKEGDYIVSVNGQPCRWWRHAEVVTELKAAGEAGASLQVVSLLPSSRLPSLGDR

[5] = biological target: MAGI2_2, Q86UL8
Sequence of MAGI2_2, Q86UL8 (Q86UL8 410-522): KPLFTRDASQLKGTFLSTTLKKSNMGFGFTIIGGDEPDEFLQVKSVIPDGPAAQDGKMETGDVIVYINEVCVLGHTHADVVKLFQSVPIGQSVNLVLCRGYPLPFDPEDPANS

[6] = biological target: Inadl_10, Q8NI35
Sequence of Inadl_10, Q8NI35 (Q8NI35 1673-1763): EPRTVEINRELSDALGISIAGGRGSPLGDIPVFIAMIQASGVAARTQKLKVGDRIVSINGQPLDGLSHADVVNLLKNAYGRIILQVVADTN

[7] = biological target: Inadl_8, Q8NI35
Sequence of Inadl_8, Q8NI35 (Q8NI35 1425-1530): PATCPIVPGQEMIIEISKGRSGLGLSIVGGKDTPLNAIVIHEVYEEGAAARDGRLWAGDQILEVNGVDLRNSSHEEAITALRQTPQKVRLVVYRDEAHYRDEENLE

[8] = biological target: T3, SNTB1, Q13884
T3 sequence (Q13884 107-205, limits assumed, looked up): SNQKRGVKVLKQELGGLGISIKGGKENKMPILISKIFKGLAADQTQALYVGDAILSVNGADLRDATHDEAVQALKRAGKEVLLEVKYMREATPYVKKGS

[9] = biological target: T4, GRIP1_2, Q9Y3R0
T4 sequence (Q9Y3R0 145-248, limits assumed, looked up): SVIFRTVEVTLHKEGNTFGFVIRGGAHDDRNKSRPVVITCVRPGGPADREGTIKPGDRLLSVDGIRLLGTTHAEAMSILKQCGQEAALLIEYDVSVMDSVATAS

[10] = biological target: T5, SNTA1, Q13424
T5 sequence (Q13424 82-180, limits assumed, looked up): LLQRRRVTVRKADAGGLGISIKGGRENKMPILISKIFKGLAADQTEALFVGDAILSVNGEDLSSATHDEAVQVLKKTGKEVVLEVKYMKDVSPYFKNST

[11] = biological target: MAST2, Q6P0Q8
Sequence of MAST2, Q6P0Q8 (Q6P0Q8 1099-1202): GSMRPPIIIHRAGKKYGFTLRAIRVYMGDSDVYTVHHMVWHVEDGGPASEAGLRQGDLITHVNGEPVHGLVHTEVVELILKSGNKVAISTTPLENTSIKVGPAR

[12] = biological target: GRIP2_3, Q9C0E4
Sequence of GRIP2_3, Q9C0E4 (Q9C0E4 238-339): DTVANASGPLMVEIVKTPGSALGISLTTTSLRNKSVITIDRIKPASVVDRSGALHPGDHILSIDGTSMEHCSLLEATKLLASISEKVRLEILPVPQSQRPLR

[13] = biological target: TJP2_1, Q9UDY2
Sequence of TJP2_1, Q9UDY2 (Q9UDY2 24-128): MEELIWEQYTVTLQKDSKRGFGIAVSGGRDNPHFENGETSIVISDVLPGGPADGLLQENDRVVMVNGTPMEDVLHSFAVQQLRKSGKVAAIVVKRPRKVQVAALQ

[14] = biological target: T6, HTRA4, P83105
T6 sequence (P83105 378-476, limits assumed, looked up): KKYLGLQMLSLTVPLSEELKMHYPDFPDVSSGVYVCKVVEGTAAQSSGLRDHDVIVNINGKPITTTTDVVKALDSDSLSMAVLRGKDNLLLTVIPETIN

[15] = biological target: NHERF4_4, Q86UT5
Sequence of NHERF4_4, Q86UT5 (Q86UT5 464-550): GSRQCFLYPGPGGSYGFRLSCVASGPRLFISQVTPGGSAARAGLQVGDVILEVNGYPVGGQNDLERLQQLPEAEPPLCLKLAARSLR

[16] = biological target: DLG5_1, Q8TDM6
Sequence of DLG5_1, Q8TDM6 (Q8TDM6 617-713): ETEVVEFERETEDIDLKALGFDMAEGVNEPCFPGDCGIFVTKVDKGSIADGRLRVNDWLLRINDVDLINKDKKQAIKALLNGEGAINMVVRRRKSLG

[17] = biological target: T7, TX1BP3, O14907
T7 sequence (O14907 10-122, limits assumed, looked up): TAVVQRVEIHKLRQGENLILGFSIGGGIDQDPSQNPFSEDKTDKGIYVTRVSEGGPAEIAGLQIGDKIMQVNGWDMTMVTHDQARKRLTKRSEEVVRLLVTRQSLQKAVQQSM

[18] = biological target: NHERF4_1, Q86UT5-2
Sequence of NHERF4_1, Q86UT5-2 (Q86UT5 other isoform, or with tags, fused parts or gaps): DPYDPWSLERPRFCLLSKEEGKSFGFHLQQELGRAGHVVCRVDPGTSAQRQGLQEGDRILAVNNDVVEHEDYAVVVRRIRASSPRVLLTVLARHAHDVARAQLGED

[19] = biological target: T8, LIN7C, Q9NUP9
T8 sequence (Q9NUP9 88-185, limits assumed, looked up): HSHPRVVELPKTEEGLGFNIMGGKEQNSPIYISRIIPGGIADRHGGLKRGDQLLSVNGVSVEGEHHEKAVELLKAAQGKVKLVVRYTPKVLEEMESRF

[20] = biological target: LIMK2, P53671
Sequence of LIMK2, P53671 (P53671 143-248): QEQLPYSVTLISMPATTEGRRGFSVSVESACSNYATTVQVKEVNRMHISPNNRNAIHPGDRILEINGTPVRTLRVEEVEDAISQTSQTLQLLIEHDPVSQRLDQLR

[21] = biological target: T9, RAPGEF6, Q8TEU7
T9 sequence (Q8TEU7 525-625, limits assumed, looked up): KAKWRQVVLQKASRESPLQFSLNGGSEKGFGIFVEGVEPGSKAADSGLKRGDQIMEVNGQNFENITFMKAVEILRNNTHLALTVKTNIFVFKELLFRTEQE

[22] = biological target: T10, SNTG1, Q9NSN8
T10 sequence (Q9NSN8 52-150, limits assumed, looked up): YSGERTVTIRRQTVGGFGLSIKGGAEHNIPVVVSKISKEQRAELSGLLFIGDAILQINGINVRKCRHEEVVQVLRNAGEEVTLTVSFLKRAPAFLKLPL

[23] = biological target: MAGI2_5, Q86UL8
Sequence of MAGI2_5, Q86UL8 (Q86UL8 915-1017): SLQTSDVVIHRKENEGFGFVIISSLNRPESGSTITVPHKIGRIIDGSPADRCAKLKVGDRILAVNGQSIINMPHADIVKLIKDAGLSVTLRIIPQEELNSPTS

[24] = biological target: T11, DVL3, Q92997
T11 sequence (Q92997 244-331, limits assumed, looked up): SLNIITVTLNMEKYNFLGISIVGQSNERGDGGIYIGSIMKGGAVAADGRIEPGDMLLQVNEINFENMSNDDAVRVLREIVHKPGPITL

[25] = biological target: IL16_1, Q14005
Sequence of IL16_1, Q14005 (Q14005 210-306): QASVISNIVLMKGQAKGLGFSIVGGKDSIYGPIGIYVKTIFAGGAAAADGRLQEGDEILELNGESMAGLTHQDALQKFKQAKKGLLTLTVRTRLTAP

[26] = biological target: DLG1_2, Q12959
Sequence of DLG1_2, Q12959 (Q12959 314-412): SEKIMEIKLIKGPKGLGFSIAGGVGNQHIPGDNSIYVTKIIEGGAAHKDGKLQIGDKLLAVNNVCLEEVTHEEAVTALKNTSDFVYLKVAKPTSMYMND

[27] = plain residues with an end cap or a label only (N-terminal biotin on a linker: ttds)
[28] = plain residues with an end cap or a label only (N-terminal biotin on a linker: ado-ado)
[29] = plain residues with an end cap or a label only (N-terminal biotin on a linker: ahx)

Sequence of ARHGEF12, Q9NZN5-2 (Q9NZN5 other isoform, or with tags, fused parts or gaps): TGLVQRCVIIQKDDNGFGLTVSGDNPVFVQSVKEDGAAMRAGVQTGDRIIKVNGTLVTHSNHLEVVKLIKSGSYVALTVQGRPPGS

Binder: HIVEALETDV [PBK, Q96KB5]
- pKd [1, 27]: 4.23
- pKd [2, 27]: below the threshold
- pKd [3, 27]: 3.7
- pKd [4, 27]: 4.91
- pKd [5, 27]: below the threshold
- pKd [6, 27]: below the threshold
- pKd [7, 27]: below the threshold
- pKd [8, 27]: 5.29
- pKd [9, 27]: below the threshold
- pKd [10, 27]: 5.28
- pKd [11, 27]: 5.71
- pKd [12, 27]: below the threshold
- pKd [13, 27]: below the threshold
- pKd [14, 27]: below the threshold
- pKd [15, 27]: below the threshold
- pKd [16, 27]: below the threshold
- pKd [17, 27]: 5.03
- pKd [18, 27]: below the threshold
- pKd [19, 27]: 4.05
- pKd [20, 27]: below the threshold
- pKd [21, 27]: below the threshold
- pKd [22, 27]: 5.68
- pKd [23, 27]: 3.98
- pKd [24, 27]: below the threshold
- pKd [25, 27]: 3.97
- pKd [26, 27]: 5.66

Binder: SVVSERISSV [HTR2C, P28335]
- pKd [1, 28]: 4.18
- pKd [2, 28]: below the threshold
- pKd [3, 28]: 3.89
- pKd [4, 28]: 4.65
- pKd [5, 28]: 3.77
- pKd [6, 28]: below the threshold
- pKd [7, 28]: 5.14
- pKd [8, 28]: 4.89
- pKd [9, 28]: below the threshold
- pKd [10, 28]: 4.59
- pKd [11, 28]: 4.78
- pKd [12, 28]: below the threshold
- pKd [13, 28]: below the threshold
- pKd [14, 28]: below the threshold
- pKd [15, 28]: below the threshold
- pKd [16, 28]: below the threshold
- pKd [17, 28]: 4.06
- pKd [18, 28]: 3.72
- pKd [19, 28]: below the threshold
- pKd [20, 28]: below the threshold
- pKd [21, 28]: below the threshold
- pKd [22, 28]: 4.06
- pKd [23, 28]: 4.01
- pKd [24, 28]: below the threshold
- pKd [25, 28]: 4.56
- pKd [26, 28]: 4.74

Binder: MERLRVETDV [ARHGEF16, Q5VV41]
- pKd [1, 27]: 4.22
- pKd [2, 27]: below the threshold
- pKd [3, 27]: 4.11
- pKd [4, 27]: 4.18
- pKd [5, 27]: 4.38
- pKd [6, 27]: below the threshold
- pKd [7, 27]: 3.53
- pKd [8, 27]: 4.84
- pKd [9, 27]: below the threshold
- pKd [10, 27]: 4.62
- pKd [11, 27]: 5.56
- pKd [12, 27]: below the threshold
- pKd [13, 27]: below the threshold
- pKd [14, 27]: 3.74
- pKd [15, 27]: below the threshold
- pKd [16, 27]: below the threshold
- pKd [17, 27]: 5.04
- pKd [18, 27]: below the threshold
- pKd [19, 27]: below the threshold
- pKd [20, 27]: below the threshold
- pKd [21, 27]: below the threshold
- pKd [22, 27]: 4.89
- pKd [23, 27]: below the threshold
- pKd [24, 27]: 3.65
- pKd [25, 27]: below the threshold
- pKd [26, 27]: 5.5

Binder: IQREDQETAV [DGKZ, Q13574]
- pKd [1, 27]: 4.22
- pKd [2, 27]: below the threshold
- pKd [3, 27]: 4.38
- pKd [4, 27]: 4.35
- pKd [5, 27]: 3.65
- pKd [6, 27]: below the threshold
- pKd [7, 27]: below the threshold
- pKd [8, 27]: 5.29
- pKd [9, 27]: below the threshold
- pKd [10, 27]: 5.37
- pKd [11, 27]: 5.76
- pKd [12, 27]: below the threshold
- pKd [13, 27]: below the threshold
- pKd [14, 27]: below the threshold
- pKd [15, 27]: below the threshold
- pKd [16, 27]: below the threshold
- pKd [17, 27]: 4.18
- pKd [18, 27]: below the threshold
- pKd [19, 27]: 4.49
- pKd [20, 27]: below the threshold
- pKd [21, 27]: below the threshold
- pKd [22, 27]: 5.4
- pKd [23, 27]: 4.69
- pKd [24, 27]: below the threshold
- pKd [25, 27]: 4.38
- pKd [26, 27]: 5.16

Binder: KTSAHHATFV [RGS12, O14924]
- pKd [1, 29]: 3.82
- pKd [2, 29]: below the threshold
- pKd [3, 29]: 3.47
- pKd [4, 29]: 4.03
- pKd [5, 29]: 4.29
- pKd [6, 29]: 3.91
- pKd [7, 29]: 4.22
- pKd [8, 29]: 3.47
- pKd [9, 29]: below the threshold
- pKd [10, 29]: 3.63
- pKd [11, 29]: 4.33
- pKd [12, 29]: below the threshold
- pKd [13, 29]: 4.45
- pKd [14, 29]: 3.97
- pKd [15, 29]: below the threshold
- pKd [16, 29]: below the threshold
- pKd [17, 29]: 3.78
- pKd [18, 29]: below the threshold
- pKd [19, 29]: below the threshold
- pKd [20, 29]: below the threshold
- pKd [21, 29]: below the threshold
- pKd [22, 29]: 3.55
- pKd [23, 29]: 4.37
- pKd [24, 29]: 3.56
- pKd [25, 29]: below the threshold
- pKd [26, 29]: 4.15

Binder: SPLHSLETSL [ATP2B1, P20020]
- pKd [1, 27]: 4.88
- pKd [2, 27]: below the threshold
- pKd [3, 27]: 4.07
- pKd [4, 27]: 4.75
- pKd [5, 27]: 3.86
- pKd [6, 27]: below the threshold
- pKd [7, 27]: below the threshold
- pKd [8, 27]: 4.69
- pKd [9, 27]: below the threshold
- pKd [10, 27]: 4.5
- pKd [11, 27]: 5.88
- pKd [12, 27]: below the threshold
- pKd [13, 27]: 3.49
- pKd [14, 27]: 3.48
- pKd [15, 27]: below the threshold
- pKd [16, 27]: below the threshold
- pKd [17, 27]: 4.45
- pKd [18, 27]: 3.91
- pKd [19, 27]: 4.45
- pKd [20, 27]: below the threshold
- pKd [21, 27]: below the threshold
- pKd [22, 27]: 4.36
- pKd [23, 27]: 4.31
- pKd [24, 27]: below the threshold
- pKd [25, 27]: below the threshold
- pKd [26, 27]: 4.67

— publication PMC9482650, “Quantitative fragmentomics allow affinity mapping of interactomes” (Nature Communications, 2022)
